B1: His6-KIF15-N375 (KIF15 motor domain, amino acids 1 to 375) (domain or fragment, human, UniProt Q9NS87 1-375, looked up)
chain: MAPGCKTELRSVTNGQSNQPSNEGDAIKVFVRIRPPAERSGSADGEQNLCLSVLSSTSLRLHSNPEPKTFTFDHVADVDTTQESVFATVAKSIVESCMSGYNGTIFAYGQTGSGKTFTMMGPSESDNFSHNLRGVIPRSFEYLFSLIDREKEKAGAGKSFLCKCSFIEIYNEQIYDLLDSASAGLYLREHIKKGVFVVGAVEQVVTSAAEAYQVLSGGWRNRRVASTSMNRESSRSHAVFTITIESMEKSNEIVNIRTSLLNLVDLAGSERQKDTHAEGMRLKEAGNINRSLSCLGQVITALVDVGNGKQRHVCYRDSKLTFLLRDSLGGNAKTAIIANVHPGSRCFGETLSTLNFAQRAKLIKNKAVVNEDTQG
notes: No cleavage of the tag is described; also called KIF15 (1 to 375); source: E. coli BL21-DE3, purified (Ni-NTA, Superdex 200)

Assays:
Details in all cases: both partners purified
[1] = molecular target: T1, Kinesin-binding protein (KIFBP), wild type (UniProt Q96EK5 1-621); assay: SEC; kinesin motor domain mixed with equimolar KIFBP, Superose 6, 10 mM K-Hepes pH 7.7, 50 mM KCl, 1 mM DTT, 0.2 mM MgATP; fractions analysed by SDS-PAGE
T1 construct: also called KIFBP-WT; WT-KIFBP; source: E. coli BL21-DE3, purified (glutathione-Sepharose, PreScission cleavage, Superdex 200)
T1 sequence (looked up): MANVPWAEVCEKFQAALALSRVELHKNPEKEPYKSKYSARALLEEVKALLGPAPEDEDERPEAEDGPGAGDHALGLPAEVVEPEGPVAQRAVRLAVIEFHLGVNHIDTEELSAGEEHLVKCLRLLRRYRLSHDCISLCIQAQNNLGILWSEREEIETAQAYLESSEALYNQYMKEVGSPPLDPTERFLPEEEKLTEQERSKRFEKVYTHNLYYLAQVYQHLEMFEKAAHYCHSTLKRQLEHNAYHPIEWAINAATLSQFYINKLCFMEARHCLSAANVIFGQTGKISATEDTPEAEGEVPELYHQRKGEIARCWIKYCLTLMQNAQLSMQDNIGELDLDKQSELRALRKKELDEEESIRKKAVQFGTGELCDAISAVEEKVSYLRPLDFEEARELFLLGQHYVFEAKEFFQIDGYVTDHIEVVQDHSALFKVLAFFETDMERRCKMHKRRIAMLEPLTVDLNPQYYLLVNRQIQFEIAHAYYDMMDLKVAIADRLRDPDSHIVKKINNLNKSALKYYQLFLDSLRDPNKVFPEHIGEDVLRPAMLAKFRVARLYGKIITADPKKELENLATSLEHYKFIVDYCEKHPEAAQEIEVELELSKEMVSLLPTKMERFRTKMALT

[2] = molecular target: B1; assay: pull-down; His6-kinesin motor domain immobilised on Ni-NTA agarose, 20 ug KIFBP protein or GST in 200 ul, 10 mM Hepes pH 7.4, 50 mM KCl, 10 mM imidazole, 30 min at 4°C; Coomassie gel, ratio of KIFBP to kinesin in the pellet
[3] = molecular target: T1, Kinesin-binding protein (KIFBP), wild …; assay: as above

B1: binds [1].

B2: KIFBP-L14^m (Loop-14 mutant of KIFBP) (natural protein, UniProt Q96EK5 1-621, looked up)
chain: MANVPWAEVCEKFQAALALSRVELHKNPEKEPYKSKYSARALLEEVKALLGPAPEDEDERPEAEDGPGAGDHALGLPAEVVEPEGPVAQRAVRLAVIEFHLGVNHIDTEELSAGEEHLVKCLRLLRRYRLSHDCISLCIQAQNNLGILWSEREEIETAQAYLESSEALYNQYMKEVGSPPLDPTERFLPEEEKLTEQERSKRFEKVYTHNLYYLAQVYQHLEMFEKAAHYCHSTLKRQLEHNAYHPIEWAINAATLSQFYINKLCFMEARHCLSAANVIFGQTGKISATEDTPEAEGEVPELYHQRKGEIARCWIKYCLTLMQNAQLSMQDNIGELDLDKQSELRALRKKELDEEESIRKKAVQFGTGELCDAISAVEEKVSYLRPLDFEEARELFLLGQHYVFEAKEFFQIDGYVTDHIEVVQDHSALFKVLAFFETDMERRCKMHKRRIAMLEPLTVAAAAAAYLLVNRQIQFEIAHAYYDMMDLKVAIADRLRDPDSHIVKKINNLNKSALKYYQLFLDSLRDPNKVFPEHIGEDVLRPAMLAKFRVARLYGKIITADPKKELENLATSLEHYKFIVDYCEKHPEAAQEIEVELELSKEMVSLLPTKMERFRTKMALT
notes: The methods tell the construction of mCherry-KIFBP-L14^m only, not of GST-KIFBP-L14^m; also called GST-KIFBP-L14^m; source: E. coli BL21-DE3, purified (glutathione-Sepharose, PreScission cleavage, Superdex 200)
In the case of B2, the “fold reduction in binding against KIFBP-WT” value [2] is reported as 2 fold.

B3: His6-KIF18A-N363 (KIF18A motor domain, amino acids 1 to 363) (domain or fragment, human, UniProt Q8NI77 1-363, looked up)
chain: MSVTEEDLCHHMKVVVRVRPENTKEKAAGFHKVVHVVDKHILVFDPKQEEVSFFHGKKTTNQNVIKKQNKDLKFVFDAVFDETSTQSEVFEHTTKPILRSFLNGYNCTVLAYGATGAGKTHTMLGSADEPGVMYLTMLHLYKCMDEIKEEKICSTAVSYLEVYNEQIRDLLVNSGPLAVREDTQKGVVVHGLTLHQPKSSEEILHLLDNGNKNRTQHPTDMNATSSRSHAVFQIYLRQQDKTASINQNVRIAKMSLIDLAGSERASTSGAKGTRFVEGTNINRSLLALGNVINALADSKRKNQHIPYRNSKLTRLLKDSLGGNCQTIMIAAVSPSSVFYDDTYNTLKYANRAKDIKSSLKSNV
notes: No cleavage of the tag is described; also called KIF18A (1-363); source: E. coli BL21-DE3, purified (Ni-NTA, Superdex 200)
B3: binds [3].

From PMC8604404, “Kinesin-binding protein remodels the kinesin motor to prevent microtubule binding” (Science Advances, 2021)
